Our source for the amyloid nucleation score values is the supplement of paper PMC12042874.

± gives the uncertainty stated by the source.

The nature of this data set: amyloid nucleation score (Sup35N fusion, yeast selection) (log enrichment); library NNK3; higher = more nucleation; inactive = no reads after selection. An outline of the steps:
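Libraries of peptides of 20 random codons fused to Sup35N were expressed in psi-negative yeast and induced 24 hours with 100 μM copper sulfate. Selection was 7 days at 30°C on medium lacking adenine and uracil, and plasmid inserts were Illumina-sequenced before and after selection. Nucleation score is the DiMSum log enrichment of output over input reads, centred on the mode score of non-aggregating sequences, and sequences with under 100 input reads were left out.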

The substance RISSIAEDSSRAGASEHPGQ returned an amyloid nucleation score of -0.57 ± 1.8.
For TCISFYETVAL, the amyloid nucleation score result was “inactive”.
As for AGIVRWVVFISSYWGPLLLL, the entry is “inactive”; as for EHNYSTASITSTLSTPNRAI, “inactive”; as for THRDYLMVRYCGSCHVEMVS, “inactive”.
Under GFSNITMCLA stands “inactive”; under RWYRLSGYKSHRNR, “inactive”; under CVRTGWIIMDSNKLD, “inactive”.
As to SPFEFRCIVESEFCMKNWAG, the amyloid nucleation score came to 0.866 ± 0.25.
LTKGQ: the amyloid nucleation score entry was “inactive”.
Turning to TFVVGRVITWKNQVCL, the amyloid nucleation score result was “inactive”.
Consider VVHNYEITWYHL, for which the amyloid nucleation score turned out to be 1.99 ± 0.074.
Substance IKNMHRLDFR displayed an amyloid nucleation score of -0.501 ± 1.9.
As to KFHWWDTCTDVKSRLKVDVE, the amyloid nucleation score result is “inactive”.
Regarding NGDYDIIRSTCYTSKVYQSV, the amyloid nucleation score result is “inactive”.
As for SVSTGVKIACTPTIVDRQLG, the amyloid nucleation score result was “inactive”.
On to VYVSCRMWNFRKMMMPV, for which the amyloid nucleation score result is “inactive”.
In turn, MMSMNMNLSYCYGFMGSHYS showed an amyloid nucleation score of 1.47 ± 0.097.
In the case of TSGKGFYMLSVGVRVYQWDI, the amyloid nucleation score result is “inactive”.
For NGLVCQKWRPYSI, the amyloid nucleation score entry was “inactive”.
Under GVNVTKVFTFRMVSCGPDDF stands 0.294 ± 0.21.
For LCPLMAY, the amyloid nucleation score entry is “inactive”.
Turning to STFSYSPVACWCFGGISQVG, the amyloid nucleation score is -0.797 ± 2.5.
Regarding FSVIMFMNLRAQFASMDRGG, the amyloid nucleation score is 1.59 ± 0.12.
With RSICV, the amyloid nucleation score result was “inactive”.
For the substance DFWKL, the amyloid nucleation score entry was “inactive”.
Turning to SILMMGNLFKLLRKF, the amyloid nucleation score result is “inactive”.
As for IGGRKALAALSVYHNVMRCL, the entry is “inactive”; as for VCGNMVSLVVHPFLFSYVCD, “inactive”.
In the case of ESSNNPFFDQAYIYIKFY, the amyloid nucleation score is -0.42 ± 0.9.
On to RLETMGLRNNVVCNSSEALQ, for which the amyloid nucleation score result was “inactive”.
Take CPRGPWFFTTTAVTSALNIS: the amyloid nucleation score is -0.016 ± 0.86.
As to NQALNILFYLNSSKSCVYPY, the amyloid nucleation score was 2.47 ± 0.063.
Consider TLLVCNMWNFSRNIMVHIGV, for which the amyloid nucleation score result was “inactive”.
Substance MWSDLGV registered an amyloid nucleation score of -0.173 ± 0.87.
As for LILGTNYQIY, the amyloid nucleation score was 1.27 ± 0.17.
KLRTSGAILVF: the amyloid nucleation score entry was “inactive”.
On to CLIVTLTHMS, for which the amyloid nucleation score was 1.64 ± 0.062.
Turning to CFIWMSYGVPLNCNCLPQRP, the amyloid nucleation score entry is “inactive”.
Turning to VMVCFG, the amyloid nucleation score result is “inactive”.
As for HLHVVHKIAS, the figure is -0.471 ± 0.82; as for YFISRCIWLVKSYREIELRW, “inactive”; as for FCFDEEDVLRTGCNGDSYPG, “inactive”.
As to PRTQSYECVYGYSLKRNWLA, the amyloid nucleation score entry is “inactive”.
With FGVGMALALCQRH, the amyloid nucleation score entry was “inactive”.
Turning to VCFFRVKRSYSNIFYTRRCR, the amyloid nucleation score result was “inactive”.
Under VDQHGFATKGPVLSKVIGHS stands “inactive”; under VYTGWKKVACNA, -0.211 ± 0.53; under MILLFVVAFILLTEYICWAI, 0.601 ± 0.18.
Under MRLMEQYFICCVM stands 1.06 ± 0.17; under LSTMN, “inactive”; under LFIWTDILTFLRS, “inactive”.
Regarding MCFEVLHACRYFVRHSSQRI, the amyloid nucleation score result is “inactive”.
Regarding PYRFLESTSRALYFTFSYTF, the amyloid nucleation score result was “inactive”.
Consider ILYFDVTISV, for which the amyloid nucleation score result is “inactive”.
In turn, VCGIYYVFLAGWEHKSRSKE displayed an amyloid nucleation score of 1.86 ± 0.089.
Turning to FHDVMKGGI, the amyloid nucleation score result was “inactive”.
Turning to DDICIEKARDVVSMSPRSFR, the amyloid nucleation score result was “inactive”.
With FVRLHSFA, the amyloid nucleation score result was “inactive”.
As for LFYLGIYDFDGNW, the entry is “inactive”.
Turning to TLLPLQMFTNHWALMPSSHR, the amyloid nucleation score was 0.125 ± 0.9.
As for IVVANMWLLKKNYLRMELFA, the entry is “inactive”; as for ITMLMLATVKYSFYADLRFL, “inactive”; as for YVRNQVNFSLAWLLITKLTK, 1.94 ± 0.085.
As for IVLNIMHNVSHFLGLYVEG, the amyloid nucleation score result is “inactive”.
With NDFVRSADKDFGSDRFSNVV, the amyloid nucleation score entry is “inactive”.
Turning to IYSVTMTRHVFFNGFQVQLV, the amyloid nucleation score entry is “inactive”.
Regarding SDFRVTPLLYE, the amyloid nucleation score result is “inactive”.
IELLCGLDIT: the amyloid nucleation score entry was “inactive”.
With YRMNDGNDGICMVWLRNSAY, the amyloid nucleation score result was “inactive”.
As for LKLWYPLSFIDVRAPRA, the entry is “inactive”.
Take LISTNKRHTAWRYCRGIPLE: the amyloid nucleation score result was “inactive”.
Take TYEGITVVTFVSYSYAIREP: the amyloid nucleation score was 0.703 ± 0.096.
As for TWKQDWDNFSYVLNSSSHST, the entry is “inactive”; as for PRRSNSFRLPLIHISQYSLK, 0.939 ± 0.2; as for DSGKC, -0.165 ± 0.33.
Under NEALSERQYRAMLTETLVAG stands “inactive”.
As for RMLPRLQDAR, the amyloid nucleation score result was “inactive”.
HYFGKT: the amyloid nucleation score entry was “inactive”.
Under QYFHMTWSVIVYEIGVRPYI stands -0.449 ± 0.8; under GKLYPKNVSWILFSAETYLY, 2.54 ± 0.075; under VLFAKRLDLTCVFLFIGRVW, “inactive”.
In the case of MIFVGILVFSDLRASKVPWV, the amyloid nucleation score entry was “inactive”.
With DQDKLFSEIRAMKFCCSFPP, the amyloid nucleation score result is “inactive”.
As to SLYLGWVPAIELLG, the amyloid nucleation score entry is “inactive”.
Take SEMHRERDTMCKVLPDNDKN: the amyloid nucleation score entry is “inactive”.
Turning to HVFIEFGKL, the amyloid nucleation score was -0.259 ± 0.42.
With LLTHRFVAGFHRKAHSCCDS, the amyloid nucleation score entry is “inactive”.
Under PSVPSNHLDCYLTWGT stands “inactive”; under TEVSQWGVREVFSLSTSRRL, 0.372 ± 0.28.
In the case of AYELHKTPNGPSPSESLALI, the amyloid nucleation score entry was “inactive”.
Take TCLWGYALFICMNSRWGMRW: the amyloid nucleation score entry is “inactive”.
On to NSFYNWSSEKKL, for which the amyloid nucleation score result was “inactive”.
With ADVLFKFNSDMRRS, the amyloid nucleation score result was “inactive”.
With HVFNGY, the amyloid nucleation score result is “inactive”.
With HYMRMQTSLANRYIARNVAR, the amyloid nucleation score entry is “inactive”.
As for VHLSWFSIIVRVDEGDWARR, the figure is -0.839 ± 1.5; as for KPQYENVMCY, “inactive”.
Take SMEIGLGVEIYDVMRFGERM: the amyloid nucleation score result was “inactive”.
As for FDDLSARVPLTVTLWPSHTA, the amyloid nucleation score result is “inactive”.
As to FSAIRVLYSVKTELDSNNMY, the amyloid nucleation score amounted to 0.822 ± 0.24.
Take FEHPHGGVNS: the amyloid nucleation score result was “inactive”.
Regarding FALSWSSNGAALLRLELTTL, the amyloid nucleation score was 0.224 ± 0.44.
With MLITYTLYCVICLGC, the amyloid nucleation score amounted to 1.46 ± 0.072.
As for SLKCLLLVMTCSLTSHAPPA, the entry is “inactive”; as for TENKSMSFFNYDRAYARIL, “inactive”.
Take LIGSGV: the amyloid nucleation score result is “inactive”.
Regarding AAVHWSTIYYSLGMVKDEGG, the amyloid nucleation score entry is “inactive”.
Consider IKVWRGKVG, for which the amyloid nucleation score entry was “inactive”.
On to IRFVLYISGILSCWFNRWNN, for which the amyloid nucleation score result was “inactive”.
Substance VVGRSCLFYSIVMY gave an amyloid nucleation score of 0.419 ± 0.67.
As for FTLDYLNSGSI, the entry is “inactive”; as for YYFTVLRLVVNMAIVSPCPQ, “inactive”; as for VNNSRGSAYSEVRSILRRYA, “inactive”.
As for VKHQVDCLIVVI, the entry is “inactive”; as for YYSLWRSIIVEACRFC, “inactive”; as for RYIYPVDLYIWYNYGILLNR, 0.777 ± 0.23.
On to VLYSYRYSYSVGLCTEMHRF, for which the amyloid nucleation score entry was “inactive”.
Take PVTFSCYNTLACIKLYYGNV: the amyloid nucleation score amounted to 2.56 ± 0.066.
Under LPTSQA stands “inactive”; under ARVVVG, “inactive”; under VNNKSFCRWAGANNLLQVMH, “inactive”.
Turning to IGYLDFVHSIENVVYNWGAS, the amyloid nucleation score result was “inactive”.
As for GDSGPDKKWHFTKY, the entry is “inactive”; as for LMRSREEGAPSDRRSQAYED, “inactive”.
As to WVMCFVAWCSAFLRTNFIDM, the amyloid nucleation score entry was “inactive”.
Regarding KALTRRIILHWK, the amyloid nucleation score is 0.711 ± 0.28.
On to RLFSRDLTSFCFLFFNFRWK, for which the amyloid nucleation score entry was “inactive”.
Turning to ERLGVL, the amyloid nucleation score result is “inactive”.
Regarding LFGCNERCFYFAF, the amyloid nucleation score result is “inactive”.
Turning to ETISFYLCLLYDVKLVNALM, the amyloid nucleation score is -0.54 ± 0.68.
As to SVALYVPLQSYSQQFLEVAT, the amyloid nucleation score entry is “inactive”.
Under FLMNHVLQNW stands “inactive”.
